# Data from paper PMC5095173, “Disulfide-activated protein kinase G Iα regulates cardiac diastolic relaxation and fine-tunes the Frank–Starling response” (Nature Communications, 2016).
# Changes are numbered by the printed parent chain.
# B1: Fhl2 pS255 (protein, UniProt O70433 1-279, looked up)
# Four and a half LIM domains …: MTERFDCHHCNESLYGKKYILKEENPHCVACFEELYANTCEECGTPIGCDCKDLSYKDRHWHEGCFHCSRCGSSLVDKPFAAKEEQLLCTDCYSNEYSSKCQECKKTIMPGTRKMEYKGSSWHETCFTCQRCQQPIGTKSFIPKENQNFCVPCYEKQYALQCVQCKKPITTGGVTYREQPWHKECFVCTACKKQLSGQRFTARDEFPYCLTCFCDLYAKKCAGCTNPISGLGGTKYISFEERQWHNDCFNCKKCSLSLVGRGFLTERDDILCPDCGKDI
# modifications: phosphorylated S255
# B2: Atp5a1 pS184 (protein, UniProt P15999 44-553, looked up)
# ATP synthase F(1) complex …: QKTGTAEMSSILEERILGADTSVDLEETGRVLSIGDGIARVHGLRNVQAEEMVEFSSGLKGMSLNLEPDNVGVVVFGNDKLIKEGDIVKRTGAIVDVPVGDELLGRVVDALGNAIDGKGPVGSKIRRRVGLKAPGIIPRISVREPMQTGIKAVDSLVPIGRGQRELIIGDRQTGKTSIAIDTIINQKRFNDGTDEKKKLYCIYVAIGQKRSTVAQLVKRLTDADAMKYTIVVSATASDAAPLQYLAPYSGCSMGEYFRDNGKHALIIYDDLSKQAVAYRQMSLLLRRPPGREAYPGDVFYLHSRLLERAAKMNDSFGGGSLTALPVIETQAGDVSAYIPTNVISITDGQIFLETELFYKGIRPAINVGLSVSRVGSAAQTRAMKQVAGTMKLELAQYREVAAFAQFGSDLDAATQQLLSRGVRLTELLKQGQYSPMAIEEQVAVIYAGVRGYLDKLEPSKITKFESAFLSHVVSQHQSLLGNIRSDGKISEQSDAKLKEIVTNFLAGFEP
# modifications: phosphorylated at S184
# B3: Atp5a1 pS76 (protein, UniProt P15999 44-553, looked up)
# ATP synthase F(1) complex …: B2 ATP synthase F(1) complex …
# modifications: phosphorylated at S76
# B4: Crip2 pS114 (protein, UniProt P36201 1-208, looked up)
# Cysteine-rich protein 2: MASKCPKCDKTVYFAEKVSSLGKDWHKFCLKCERCNKTLTPGGHAEHDGKPFCHKPCYATLFGPKGVNIGGAGSYIYEKPPTEAPQVTGPIEVPVVRTEERKTSGPPKGPSKASSVTTFTGEPNMCPRCNKRVYFAEKVTSLGKDWHRPCLRCERCSKTLTPGGHAEHDGQPYCHKPCYGILFGPKGVNTGAVGSYIYDKDPEGTVQP
# modifications: phosphorylated at S114
# B5: Crip2 pS19 (protein, UniProt P36201 1-208, looked up)
# Cysteine-rich protein 2: B4 Cysteine-rich protein 2
# modifications: phosphorylated at S19
# B6: Lrpap1 pS245 (protein, UniProt Q99068 34-360, looked up)
# Alpha-2-macroglobulin …: HGGKYSREKNEPEMAAKRESGEEFRMEKLNQLWEKAKRLHLSPVRLAELHSDLKIQERDELNWKKLKVEGLDGDGEKEAKLVHNLNVILARYGLDGRKDTQTVHSNALNEDTQDELGDPRLEKLWHKAKTSGKFSSEELDKLWREFLHYKEKIHEYNVLLDTLSRAEEGYENLLSPSDMTHIKSDTLASKHSELKDRLRSINQGLDRLRKVSHQGYGPATEFEEPRVIDLWDLAQSANFTEKELESFREELKHFEAKIEKHNHYQKQLEISHQKLKHVESIGDPEHISRNKEKYVLLEEKTKELGYKVKKHLQDLSSRVSRARHNEL
# modifications: phosphorylated at S245
# B7: Akap1 pS103 (protein, UniProt O88884 30-854, looked up)
# A-kinase anchor protein 1, …: KDRLSSNGKQVGTLKVGPAIEDRLPTEEACPGVLSVTPSVTQPPGKEEQRSMDRPLSDPPALPRTRQVRRRSESSGNLPSIVDTRLQAGQCSDENSKVVLSLMGDEAKSIPLGRPLFPKDLSFPYEAVEGCKQESALGRTPGRGWLSQCAASGENARETGGAEGTGDAVLGESVLEEGLLPQECVSEVEKSEFPILAPGGGGGEKVRSGPPQVDELLKKEEYIVGKLPSSFVGPVHSELVKDEGALVPQVKGSQDRSLARELDKDKTLPEKDQIEQTAFQIISQVILEATEEIRATTVGKTVAQVHPTPGTQPQGQEESCVPASQETSLGQEIPDPASTRTGATASPSAGAPPPKTYVSCLSSPLSGPTKDQKPKNSAHHISLAPCPPPVTPQRQSLDGASNPRGDDTFVTCTSNNSQSVLSVTSLGLCSDPVSTSRLEDSCTETISSSGDKAVTPPLPDSTEPFSNGVLKEELSDLGTEDGWTMDTEADHSGGSDGNSMDSVDSCCGLTKPDSPQTVQAGSNPKKVDLIIWEIEVPKHLVGRLIGKQGRYVSFLKQTSGAKIYISTLPYTQNIQICHIEGSQHHVDKALNLIGKKFKELNLTNIYAPPLPSLALPSLPMTSWLMLPDGITVEVIVVNQVNAGHLFVQQHTHPTFHALRSLDQQMYLCYSQPGIPTLPTPVEITVICAAPGADGAWWRAQVVASYEETNEVEIRYVDYGGYKRVKVDVLRQIRSDFVTLPFQGAEVLLDSVVPLSDDDHFSPEADAAMSEMTGNTALLAQVTSYSATGLPLIQLWSVVGDEVVLINRSLVERGLAQWVDSCYASL
# modifications: phosphorylated at S103
# B8: Dync1li1 pT408 (protein, UniProt Q9QXU8 1-523, looked up)
# Cytoplasmic dynein 1 light …: MAAVGRVGSFGSSPPGLASTYASGPLANELASGSGGPAAGDDEDGQNLWSRILREVSTRSRSKLPTGKNVLLLGEDGAGKTSLIRRIQGIEEYKKGRGLEYLYLNVHDEDRDDQTRCNVWILDGDLYHKGLLKFSLDALSLRDTLVMLVVDMSKPWTALDSLQKWASVVREHVDKLKIPPEEMKEMEQKLIRDFQEYVEPGEDFPASPQRRATAAQEDRDDSVVLPLGADTLTHNLGLPVLVVCTKCDAISVLEKEHDYRDEHFDFIQSHIRKFCLQYGAALIYTSVKENKNIDLVYKYIVQKLYGFPYKIPAVVVEKDAVFIPAGWDNDKKIGILHENFQTLKIEDNFEDIITKPPVRKFVHEKEIMAEDDQVFLMKLQSLLAKQPPTAAGRPVDASPRVPGGSPRTPNRSVSSNVASVSPIPAGSKKIDPNMKAGATSEGVLANFFNSLLSKKTGSPGGPGVGGSPGGGAAGASTSLPPSAKKSGQKPVLSDVHAELDRITRKPASVSPTTPPSPTEGEAS
# modifications: phosphorylated at T408
# B9: Dync1li1 pS412 (protein, UniProt Q8R1Q8 1-523, looked up)
# Cytoplasmic dynein 1 light …: B8 Cytoplasmic dynein 1 light … with R51C, R54S, A212T, A214G, D220G, I345V, T477P, P515T
# modifications: phosphorylated S412
# B10: Clasp2 pS436 (protein, UniProt Q99JD4 1-1286, looked up)
# CLIP-associating protein 2: MRRLICKRICDYKSFDDEESVDGNRPSSAASAFKVPAPKTPGNPVNSARKPGSAGGPKAGGTSKEGGAGAVDEDDFIKAFTDVPSIQIYSSRELEETLNKIREILSDDKHDWDQRANALKKIRSLLVAGAAQYDCFFQHLRLLDGALKLSAKDLRSQVVREACITVAHLSTVLGNKFDHGAEAIVPTLFNLVPNSAKVMATSGCAAIRFIIRHTHVPRLIPLITSNCTSKSVPVRRRSFEFLDLLLQEWQTHSLERHAAVLVETIKKGIHDADAEARVEARKTYMGLRNHFPGEAETLYNSLEPSYQKSLQTYLKSSGSVASLPQSDRSSSSSQESLNRPFSSKWSTANPSAVAGRVSVGGSKASPLPGSLQRSRSDIDVNAAAGAKAHHAAGQAVRSGRLGAGALNPGSYASLEDTSDKMDGTASEDGRVRAKLSTPLVAVGNAKTDSRGRSRTKMVSQSQPGSRSGSPGRVLTTTALSTVSSGAQRILVNSASAQKRSKIPRSQGCSREASPSRLSVARSSRIPRPSVSQGCSREASRESSRDTSPVRSFQPLGPGYGMSQSSRLSSSVSAMRVLNTGSDVEEAVADALLLGDIRTKKKPARRRYESYGMHSDDDANSDASSACSERSYSSRNGSIPTYMRQTEDVAEVLNRCASSNWSERKEGLLGLQNLLKNQRTLSRVELKRLCEIFTRMFADPHGKVFSMFLETLVDFIQVHKDDLQDWLFVLLTQLLKKMGADLLGSVQAKVQKALDVTRESFPNDLQFNILMRFTVDQTQTPSLKVKVAILKYIETLAKQMDPGDFINSSETRLAVSRVITWTTEPKSSDVRKAAQSVLISLFELNTPEFTMLLGALPKTFQDGATKLLHNHLRNTGNGTQSSMGSPLTRPTPRSPANWSSPLTSPTNTSQNTLSPSAFDYDTENMNSEDIYSSLRGVTEAIQNFSFRSQEDMSEPLKRDPKKEDGDTVCSGPGMSDPRAGGDAPDSSQPALDNKASLLHSVPLHSSPRSRDYNPYNYSDSISPFNKSALKEAMFDDDADQFPDDLSLDHSDLVAELLKELSNHNERIEERKIALYELMKLTQEESFSVWDEHFKTILLLLLETLGDKEPTIRALALKVLKEILRHQPARFKNYAELTVMKTLEAHKDPHKEVVRSAEEAASVLATSISPEQCIKVLCPIIQTADYPINLAAIKMQTKVIERVSKETLNLLLPEIMPGLIQGYDNSESSVRKACVFCLVAVHAVIGDELKPHLSQLTGSKMKLLNLYIKRAQTGSAGADPTTDVSGQS
# modifications: phosphorylated at S436
# B11: Eml1 pS108 (protein, UniProt Q4V8C3 1-814, looked up)
# Echinoderm …: MEDGFSSYSSLYDTSSLLQFCNDDSASAASSMEISDRIASLEQRVQMQEDDIQLLKSALADVVRRLNITEEQQAVLNRKGPTKARPLGQTLPLRTTVNNGTVLPKKPSASLPSPSGSRKEMVVPVTKSINRTSSSERVSPGGRRESSGDSKGSRNRTGSTSSSSSGKKNSESKPKEPTFSPEEGYVKMFLRGRPVTMYMPKDQVDSYSLEAKAELPTKRLKLEWVYGYRGRDCRNNLYLLPTGETVYFIASVVVLYNVEEQLQRHYAGHNDDVKCLAVHPDRITIATGQVAGTSKDGKQLPPHVRIWDSVTLNTLHVIGIGFFDRAVTCIAFSKSNGGSHLCAVDDSNDHVLSVWDWQREERLADVKCSNEAVFAADFHPTDTNIIVTCGKSHLYFWTLEGNSLNKKQGLFEKQEKPKFVLCVTFSENGDTITGDSSGNILVWGKGTNRISYAVQGAHEGGIFALCMLRDGTLVSGGGKDRRLISWNGNYQKLHKAEIPEQFGPIRTVAEGKGNVILIGTTRNFVLQGTLTGDFTPITQGHTDELWGLAIHASKPQFLTCGHDKHATLWDAVGHRPVWDKIIEDPAQSSGFHPSGSVVAVGTLTGRWFVFDTETKDLVTVHTDGNEQLSVMRYSPDGNFLAIGSHDNCIYIYGVSDNGRKYTRVGKCSGHSSFITHLDWSVNSQFLVSNSGDYEILYWVPSACKQVVSVETTRDIEWATYTCTLGFHVFGVWPEGSDGTDINAVCRAHEKKLLSTGDDFGKVHLFSYPCSQFRAPSHIYSGHSSHVTNVDFLCEDSHLISTGGKDTSIMQWRVI
# modifications: phosphorylated at S108
# System: PKGIα (analogue-sensitive C42S/M438G), cGMP-activated
# Assay: Chemical genetic phosphoproteomic screen, cGMP-activated PKGIα C42S/M438G versus unactivated control
# Format: biochemical, human PKGIα; substrates in rat heart homogenate
# Details: control = PKGIα C42S/M438G
# Summary of the method: (§1)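 Analogue-sensitive human PKGIα mutants (M438G, air-oxidized to disulfide dimer; C42S/M438G, cGMP-activated), expressed in 293-F cells, thiophosphorylate substrates in rat left-ventricle lysate (20 mg ml) using N6-alkylated ATPγS. Thiophosphopeptides are recovered by covalent capture and identified with sites by LC–MS/MS, each compared against an unactivated control.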
row,Molecule,log2 fold change cGMP vs Control
1,B1,3.732
2,B2,3.438
3,B3,2.023
4,B4,3.456
5,B5,2.804
6,B6,2.6435
7,B7,1.156
8,B8,3.758
9,B9,4.149
10,B10,1.792
11,B11,3.948

# System: PKGIα (analogue-sensitive M438G), disulfide-activated
# Assay: Chemical genetic phosphoproteomic screen, disulfide-activated PKGIα M438G versus unactivated control
# Format: biochemical, human PKGIα; substrates in rat heart homogenate
# Details: control = PKGIα C42S/M438G
# Summary of the method: as §1
row,Molecule,log2 fold change Disulfide vs Control
1,B1,1.662
2,B2,1.986
3,B3,1.372
4,B4,1.062
5,B5,1.661
6,B6,0.3181
7,B7,0.8425
8,B8,1.949
9,B9,1.658
10,B10,0.8616
11,B11,1.496
